# Laboratory results reported in patent US20250304644A1, “PEPTIDES TRIPLE AGONISTS OF GIP, GLP-1 AND GLP-2” (BAINAN BIOTECH APS, priority 2021, published 2025).
# *1 amine or outer side, *2 acyl side, *3 side chain or, on linkers, in order; H or OH if unused. Where no end group is shown, it is not given here. Side-chain parts run from the residue outwards. [ ]: non-standard residue; d: D form. The star is where a group is joined. C18 diacid = O=C(O)CCCCCCCCCCCCCCCCC(=O)*; γGlu = O=C(O)[C@H](CCC(=O)[*:2])N[*:1]; AEEA = NCCOCCOCC(=O)O; Aib = CC(C)(N)C(=O)O
# T1: human GLP-2R (glucagon-like peptide-2 receptor) (human, UniProt O95838 1-553)
# T1 sequence (looked up): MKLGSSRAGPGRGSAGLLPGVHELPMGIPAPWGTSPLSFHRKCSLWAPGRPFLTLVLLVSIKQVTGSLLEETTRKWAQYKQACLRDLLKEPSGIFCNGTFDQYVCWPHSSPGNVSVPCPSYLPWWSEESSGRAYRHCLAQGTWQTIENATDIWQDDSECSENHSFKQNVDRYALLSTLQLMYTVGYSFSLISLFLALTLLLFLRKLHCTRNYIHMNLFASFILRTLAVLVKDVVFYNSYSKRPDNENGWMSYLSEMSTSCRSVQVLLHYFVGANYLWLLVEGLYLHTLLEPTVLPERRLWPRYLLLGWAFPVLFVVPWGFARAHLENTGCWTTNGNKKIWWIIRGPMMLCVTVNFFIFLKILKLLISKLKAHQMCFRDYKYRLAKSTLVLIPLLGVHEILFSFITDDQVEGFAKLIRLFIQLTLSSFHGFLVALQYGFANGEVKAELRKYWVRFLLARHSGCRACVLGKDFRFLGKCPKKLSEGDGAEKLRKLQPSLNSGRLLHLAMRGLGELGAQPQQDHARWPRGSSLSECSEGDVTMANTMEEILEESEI
# T2: human GIPR (glucose-dependent insulinotropic polypeptide receptor) (human, UniProt P48546 22-466)
# T2 sequence (looked up): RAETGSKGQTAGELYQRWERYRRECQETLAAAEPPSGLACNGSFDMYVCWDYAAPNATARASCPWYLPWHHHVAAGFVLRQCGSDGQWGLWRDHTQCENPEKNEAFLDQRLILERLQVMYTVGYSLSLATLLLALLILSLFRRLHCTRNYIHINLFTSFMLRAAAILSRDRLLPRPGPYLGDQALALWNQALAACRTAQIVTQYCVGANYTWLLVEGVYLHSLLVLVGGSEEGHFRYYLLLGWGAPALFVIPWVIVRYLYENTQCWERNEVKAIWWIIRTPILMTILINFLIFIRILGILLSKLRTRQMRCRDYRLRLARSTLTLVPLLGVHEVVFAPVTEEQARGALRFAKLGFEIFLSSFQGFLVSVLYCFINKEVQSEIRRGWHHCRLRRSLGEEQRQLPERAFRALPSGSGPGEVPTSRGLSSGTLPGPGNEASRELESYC
# T3: Human N-terminally SNAP-tagged GIPR (human, UniProt P48546 22-466, SNAP tag labeled with Tag-Lite SNAP-Lumi4-Tb)
# T3 sequence (looked up): T2 sequence (looked up)
# T4: human SNAP-tagged GLP-2R (human, UniProt O95838 1-553, SNAP tag labeled with Tag-Lite SNAP-Lumi4-Tb)
# T4 sequence (looked up): T1 sequence (looked up)
# Biological target: T1, human GLP-2R (glucagon-like peptide-2 …)
# Assay: cell-based or functional assay
Binder,EC50 (nM) GLP-2R,Efficacy GLP-2R,logEC50 GLP-2R
HADGTFTSDYSTILDK([AEEA-AEEA-γGlu-C18 diacid])LAARDFINWLIQTKGKKNDWKHNITQ-OH [Compound 21],0.6 nM,104,9.2
HADGTFTSDYSIILDK([AEEA-AEEA-γGlu-C18 diacid])LAARDFINWLIQTKGKKNDWKHNITQ-OH [Compound 20],0.3 nM,100,9.5
H[Aib]DGTFISDYSTILDALAARDFINWLIQTKITK([AEEA-AEEA-γGlu-C18 diacid])-OH [Compound 28],,89,8.7
HADGTFTSDYST[Aib]LDK([AEEA-AEEA-γGlu-C18 diacid])LAARDFINWLIQTKGKKNDWKHNITQ-OH [Compound 22],0.6 nM,93,9.3

# Biological target: human SNAP-tagged GLP-1R (human, UniProt P43220 24-463, SNAP tag labeled with Tag-Lite SNAP-Lumi4-Tb)
# Assay: cell-based or functional assay
Binder,Absolute hGLP-1R internalization (AUC),Relative hGLP-1R internalization (%)
HADGTFTSDYSTILDK([AEEA-AEEA-γGlu-C18 diacid])LAARDFINWLIQTKGKKNDWKHNITQ-OH [Compound 21],94.7 AUC,113%
HADGTFTSDYSIILDK([AEEA-AEEA-γGlu-C18 diacid])LAARDFINWLIQTKGKKNDWKHNITQ-OH [Compound 20],91.8 AUC,109%
H[Aib]DGTFISDYSTILDALAARDFINWLIQTKITK([AEEA-AEEA-γGlu-C18 diacid])-OH [Compound 28],0.96 AUC,1.14%
HADGTFTSDYST[Aib]LDK([AEEA-AEEA-γGlu-C18 diacid])LAARDFINWLIQTKGKKNDWKHNITQ-OH [Compound 22],78.8 AUC,93.7%

# Biological target: human GLP-1R (glucagon-like peptide-1 receptor) (human, UniProt P43220 24-463)
# Assay: cell-based or functional assay
Binder,EC50 (nM) GLP-1R,Efficacy GLP-1R,logEC50 GLP-1R
HADGTFTSDYSTILDK([AEEA-AEEA-γGlu-C18 diacid])LAARDFINWLIQTKGKKNDWKHNITQ-OH [Compound 21],0.05 nM,122,10.3
HADGTFTSDYSIILDK([AEEA-AEEA-γGlu-C18 diacid])LAARDFINWLIQTKGKKNDWKHNITQ-OH [Compound 20],0.04 nM,112,10.4
H[Aib]DGTFISDYSTILDALAARDFINWLIQTKITK([AEEA-AEEA-γGlu-C18 diacid])-OH [Compound 28],3.98 nM,102,8.4
HADGTFTSDYST[Aib]LDK([AEEA-AEEA-γGlu-C18 diacid])LAARDFINWLIQTKGKKNDWKHNITQ-OH [Compound 22],0.04 nM,116,10.5

# Biological target: T2, human GIPR (glucose-dependent …)
# Assay: cell-based or functional assay
Binder,EC50 (nM) GIPR,Efficacy GIPR,pEC50 GIPR
HADGTFTSDYSTILDK([AEEA-AEEA-γGlu-C18 diacid])LAARDFINWLIQTKGKKNDWKHNITQ-OH [Compound 21],0.398 nM,104,9.4
H[Aib]DGTFISDYSTILDALAARDFINWLIQTKITK([AEEA-AEEA-γGlu-C18 diacid])-OH [Compound 28],0.071 nM,119,10.2
HADGTFTSDYST[Aib]LDK([AEEA-AEEA-γGlu-C18 diacid])LAARDFINWLIQTKGKKNDWKHNITQ-OH [Compound 22],1.12 nM,93,9

# Biological target: human glucagon receptor (GCGR) (human, UniProt P47871 26-477, limits assumed)
# Sequence (P47871 26-477 limits assumed): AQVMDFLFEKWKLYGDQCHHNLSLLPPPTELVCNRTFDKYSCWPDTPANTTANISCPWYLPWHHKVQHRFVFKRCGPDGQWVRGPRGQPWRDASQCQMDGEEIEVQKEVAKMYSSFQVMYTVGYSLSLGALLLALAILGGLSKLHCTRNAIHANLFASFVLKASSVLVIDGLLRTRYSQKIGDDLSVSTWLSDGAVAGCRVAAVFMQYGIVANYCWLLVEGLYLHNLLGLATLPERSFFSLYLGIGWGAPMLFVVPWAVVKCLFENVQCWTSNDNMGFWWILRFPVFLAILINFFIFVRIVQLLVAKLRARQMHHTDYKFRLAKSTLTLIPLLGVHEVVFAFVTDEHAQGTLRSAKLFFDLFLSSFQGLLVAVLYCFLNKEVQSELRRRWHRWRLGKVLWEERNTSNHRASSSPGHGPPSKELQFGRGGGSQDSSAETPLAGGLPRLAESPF
# Assay: cell-based or functional assay
row,Binder,"potency in Gs activation, measured as cAMP accumulation (-p Log EC50)"
1,HADGTFTSDYSTILDK([AEEA-AEEA-γGlu-C18 diacid])LAARDFINWLIQTKGKKNDWKHNITQ-OH [Compound 21],< 7 -p Log EC50
2,HADGTFTSDYSIILDK([AEEA-AEEA-γGlu-C18 diacid])LAARDFINWLIQTKGKKNDWKHNITQ-OH [Compound 20],< 7 -p Log EC50
3,H[Aib]DGTFISDYSTILDALAARDFINWLIQTKITK([AEEA-AEEA-γGlu-C18 diacid])-OH [Compound 28],< 7 -p Log EC50
4,HADGTFTSDYST[Aib]LDK([AEEA-AEEA-γGlu-C18 diacid])LAARDFINWLIQTKGKKNDWKHNITQ-OH [Compound 22],< 7 -p Log EC50

# Biological target: T3, Human N-terminally SNAP-tagged GIPR
# Assay: cell-based or functional assay
Binder,Absolute hGIPR internalization (AUC),Relative hGIPR internalization (%)
HADGTFTSDYSTILDK([AEEA-AEEA-γGlu-C18 diacid])LAARDFINWLIQTKGKKNDWKHNITQ-OH [Compound 21],10.2 AUC,28%
HADGTFTSDYSIILDK([AEEA-AEEA-γGlu-C18 diacid])LAARDFINWLIQTKGKKNDWKHNITQ-OH [Compound 20],14.2 AUC,38%
H[Aib]DGTFISDYSTILDALAARDFINWLIQTKITK([AEEA-AEEA-γGlu-C18 diacid])-OH [Compound 28],21.7 AUC,59%
HADGTFTSDYST[Aib]LDK([AEEA-AEEA-γGlu-C18 diacid])LAARDFINWLIQTKGKKNDWKHNITQ-OH [Compound 22],7 AUC,19%

# Biological target: T4, human SNAP-tagged GLP-2R
# Assay: cell-based or functional assay
Binder,Absolute hGLP-2R internalization (AUC),Relative hGLP-2R internalization (%)
HADGTFTSDYSTILDK([AEEA-AEEA-γGlu-C18 diacid])LAARDFINWLIQTKGKKNDWKHNITQ-OH [Compound 21],36.3 AUC,74.6%
HADGTFTSDYSIILDK([AEEA-AEEA-γGlu-C18 diacid])LAARDFINWLIQTKGKKNDWKHNITQ-OH [Compound 20],39.4 AUC,81%
H[Aib]DGTFISDYSTILDALAARDFINWLIQTKITK([AEEA-AEEA-γGlu-C18 diacid])-OH [Compound 28],12 AUC,24.8%
HADGTFTSDYST[Aib]LDK([AEEA-AEEA-γGlu-C18 diacid])LAARDFINWLIQTKGKKNDWKHNITQ-OH [Compound 22],38 AUC,78.2%
